Article doi:10.1101/2023.05.10.540081v1

B1: β-glucosidase B (BglB) (Paenibacillus polymyxa) (protein)
chain: MSENTFIFPATFMWGTSTSSYQIEGGTDEGGRTPSIWDTFCQIPGKVIGGDCGDVACDHFHHFKEDVQLMKQLGFLHYRFSVAWPRIMPAAGIINEEGLLFYEHLLDEIELAGLIPMLTLYHWDLPQWIEDEGGWTQRETIQHFKTYASVIMDRFGERINWWNTINEPYCASILGYGTGEHAPGHENWREAFTAAHHILMCHGIASNLHKEKGLTGKIGITLNMEHVDAASERPEDVAAAIRRDGFINRWFAEPLFNGKYPEDMVEWYGTYLNGLDFVQPGDMELIQQPGDFLGINYYTRSIIRSTNDASLLQVEQVHMEEPVTDMGWEIHPESFYKLLTRIEKDFSKGLPILITENGAAMRDELVNGQIEDTGRHGYIEEHLKACHRFIEEGGQLKGYFVWSFLDNFEWAWGYSKRFGIVHINYETQERTPKQSALWFKQMMAKNGF
B2: β-glucosidase B (BglB) (Paenibacillus polymyxa; M224K) (protein)
chain: MSENTFIFPATFMWGTSTSSYQIEGGTDEGGRTPSIWDTFCQIPGKVIGGDCGDVACDHFHHFKEDVQLMKQLGFLHYRFSVAWPRIMPAAGIINEEGLLFYEHLLDEIELAGLIPMLTLYHWDLPQWIEDEGGWTQRETIQHFKTYASVIMDRFGERINWWNTINEPYCASILGYGTGEHAPGHENWREAFTAAHHILMCHGIASNLHKEKGLTGKIGITLNKEHVDAASERPEDVAAAIRRDGFINRWFAEPLFNGKYPEDMVEWYGTYLNGLDFVQPGDMELIQQPGDFLGINYYTRSIIRSTNDASLLQVEQVHMEEPVTDMGWEIHPESFYKLLTRIEKDFSKGLPILITENGAAMRDELVNGQIEDTGRHGYIEEHLKACHRFIEEGGQLKGYFVWSFLDNFEWAWGYSKRFGIVHINYETQERTPKQSALWFKQMMAKNGF
B3: β-glucosidase B (BglB) (Paenibacillus polymyxa; V314D) (protein)
chain: MSENTFIFPATFMWGTSTSSYQIEGGTDEGGRTPSIWDTFCQIPGKVIGGDCGDVACDHFHHFKEDVQLMKQLGFLHYRFSVAWPRIMPAAGIINEEGLLFYEHLLDEIELAGLIPMLTLYHWDLPQWIEDEGGWTQRETIQHFKTYASVIMDRFGERINWWNTINEPYCASILGYGTGEHAPGHENWREAFTAAHHILMCHGIASNLHKEKGLTGKIGITLNMEHVDAASERPEDVAAAIRRDGFINRWFAEPLFNGKYPEDMVEWYGTYLNGLDFVQPGDMELIQQPGDFLGINYYTRSIIRSTNDASLLQDEQVHMEEPVTDMGWEIHPESFYKLLTRIEKDFSKGLPILITENGAAMRDELVNGQIEDTGRHGYIEEHLKACHRFIEEGGQLKGYFVWSFLDNFEWAWGYSKRFGIVHINYETQERTPKQSALWFKQMMAKNGF
B4: β-glucosidase B (BglB) (Paenibacillus polymyxa; Y169H) (protein)
chain: MSENTFIFPATFMWGTSTSSYQIEGGTDEGGRTPSIWDTFCQIPGKVIGGDCGDVACDHFHHFKEDVQLMKQLGFLHYRFSVAWPRIMPAAGIINEEGLLFYEHLLDEIELAGLIPMLTLYHWDLPQWIEDEGGWTQRETIQHFKTYASVIMDRFGERINWWNTINEPHCASILGYGTGEHAPGHENWREAFTAAHHILMCHGIASNLHKEKGLTGKIGITLNMEHVDAASERPEDVAAAIRRDGFINRWFAEPLFNGKYPEDMVEWYGTYLNGLDFVQPGDMELIQQPGDFLGINYYTRSIIRSTNDASLLQVEQVHMEEPVTDMGWEIHPESFYKLLTRIEKDFSKGLPILITENGAAMRDELVNGQIEDTGRHGYIEEHLKACHRFIEEGGQLKGYFVWSFLDNFEWAWGYSKRFGIVHINYETQERTPKQSALWFKQMMAKNGF

Substrate: O=[N+]([O-])c1ccc(O[C@@H]2O[C@H](CO)[C@@H](O)[C@H](O)[C@H]2O)cc1
Assay: purified protein
Conditions: technical triplicates
[1] = biological replicate a of two, low protein yield

Protein | Km [mM] | kcat [min⁻¹] | also measured
B1 | 4.38 | 368.60 | 
B2 |  |  | Km [1]: 7.54 mM; kcat [1]: 101.70 min⁻¹
B3 | 6.84 | 295.00 | 
B4 |  |  | Km (biological replicate a of two): 22.35 mM; kcat (biological replicate a of two): 593.90 min⁻¹
